Experimental data as given in article PMC4289141 (Journal of the American Chemical Society, 2013).

Biological target: the molecule itself
Experiment: cross-linking

B1: ^A74/C81/C96RIDC1 (natural protein)
chain: not shown
modifications: heme covalently (c-type) linked to the protein backbone; in the tetramer disulfide bonds between monomers
stoichiometry N: 4
